Experiment [1] has as its target T1, recombinant human CCL2/MCP1 (human, UniProt P13500 24-99, 125I label in the radioligand assays).
T1 construct: Immunogen and selection antigen was the Mucin stalk Chimera (R&D 979-MC/CF)
The experiment is described as follows: ELISA, periplasmic extract on coated CCL2, anti-myc detection.

For experiment [2], the target named is T2, recombinant human CXCL11/I-TAC (human, UniProt O14625 22-94, biotinylated in the ELISA; 125I label in the radioligand assays).
T2 sequence (looked up): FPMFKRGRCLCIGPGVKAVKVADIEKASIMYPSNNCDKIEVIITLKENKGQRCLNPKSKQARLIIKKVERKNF
As to the kind of experiment: inhibition of 125I-CXCL11 binding to hCXCR3 (HEK293T cells), 10x diluted periplasm; ELISA grade at the label.

For experiment [3], the target named is T2, recombinant human CXCL11/I-TAC. The experiment is described as follows: inhibition of 125I-CXCL11 binding to hCXCR3 (HEK293T cells), 10x diluted periplasm.

The results in this text go back to patent publication US20100092460A1 (Ablynx, published 2010).

T1 sequence (P13500 24-99 limits assumed): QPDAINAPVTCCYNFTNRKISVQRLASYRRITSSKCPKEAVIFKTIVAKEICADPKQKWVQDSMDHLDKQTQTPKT

B1: Nanobody 8A7 (VHH)
VHH: EVQLVESGGGLVQAGGSLRLSCAASGRTFSSYRMGWFRQAPEKEREFVAVISRSGGSTFYSNSVKGRFTISRDNAKNTVYLQMNSLKPEDTAVYYCAAGAQMGWAEASTYDYWGQGTQVTVSS
notes: llama VHH against CCL2; not shown: C-terminal c-myc tag and (His)6 tag coded by the vector
Turning to B1, the binding result in experiment [1] was “binds”.

B2: Nanobody 15F7 (VHH)
VHH: EVQLVESGGGLVQAGGSLRLPCAASGRTFSSYRMGWFRQAPEKEREFVAVISRSGGDTFYSSSVKGRFTISRDNAKNTVYLQMNSLKPEDTAVYYCAAGAQMGWAEASTYDYWGQGTQVTVSS
notes: as for B1
In the case of B2, the binding result in experiment [1] is listed as “binds”.

B3: Nanobody 15H7 (VHH)
VHH: EVQLVKSGGGLVQAGGSLRLSCAASGRTFSSYRMGWFRQAPEKEREFVALISRSGGTTFYSNSVKGRFTISRDNAKNTVYLQMNSLEPEDTAVYYCAAGAQMGWAEASTYDYWGQGTQVTVSS
notes: as for B1
Consider B3, for which the binding result in experiment [1] is on record as “binds”.

B4: Nanobody 8E7 (VHH)
VHH: EVQLVESGGGLVQAGGSLRLSCAASGGTFSSYRMGWFRQAPEKEREFVAVITRSGGSHSYSNSVKGRFTISRDNAKNTVYLQMNSLKPEDTAVYYCAAGAQMGWAEASTYDYWGQGTQVTVSS
notes: as for B1
In the case of B4, the binding result in experiment [1] was “binds”.

B5: Nanobody 8D7 (VHH)
VHH: EVQLVESGGGLVQAGGSLRLSCAASGRTFSSYRMGWFRQAPEKEREFVALITRSGGTTFYSNSVKGRFTISRDNAKNTVYLQMNSLEPEDTAVYYCAAGAQMGWAEASTYDYWGQGTQVTVSS
notes: as for B1
Regarding B5, the binding result in experiment [1] is listed as “binds”.

B6: Nanobody 11D2 (VHH)
VHH: EVQLVESGGGLVQAGGSLRLSCAASGFSFDDYAIGWFRQAPGKEREGVSLISSSDGSTYYADSVKGRFTISSDNAKNTVYLQMNSLKPEDTAVYYCAAGQGLLRAQALRWESYDYWGQGTQVTVSS
notes: llama VHH against CXCL11; also called 11G1; 11H1; not shown: C-terminal c-myc tag and (His)6 tag coded by the vector
For B6, the binding result in experiment [2] is “binds”.

B7: Nanobody 11A3 (VHH)
VHH: EVQLVESGGGLVQAGGSLRLSCAASGFSFDDYVIGWFRQAPGKEREGVSLISSSDGSTYYADSVKGRFTISSDNAKNTVYLQMNSLKPEDTAVYYCAAGNGLLRLWMFHVSAYDYWGQGTQVTVSS
notes: llama VHH against CXCL11; not shown: C-terminal c-myc tag and (His)6 tag coded by the vector
As for B7, in experiment [2], the binding result is “binds”.

B8: Nanobody 11H2 (VHH)
VHH: EVQLVESGGGLVQAGGSLRLSCAASGFTFDDYAIGWFRQAPGKEREGVSCISSSDGDTYYADSVKGRFTASSDNAKNTVYLQINSLKPEDTAVYYCAAGQGLLIAQALRWESYDYWGQGTQVTVSS
notes: llama VHH against CXCL11; purified; not shown: C-terminal c-myc tag and (His)6 tag coded by the vector
Turning to B8, in experiment [2], the binding result is given as “binds”.

B9: Nanobody 11A1 (VHH)
VHH: EVQLVESGGGLVQAGGSLRLSCAASGFTLDDYAIGWFRQAPGKEREGVSCISSIDGDTVYADSVKGRFTASSDNAKNTAYLQMNSLKPEDTAVYYCAAGQGLLTAQALRWESYDYWGQGTQVTVSS
notes: as for B7
On to B9, for which, in experiment [3], the binding result is given as “binds”.

B10: Nanobody 11C2 (VHH)
VHH: EVQLVESGGGLVQAGGSLRLPCAASGFTFDDYVIGWFRQAPGKEREGVSLISSSDGSTYYADSVKGRFTISSDNAKNTVYLQMNGLKPEDTAVYYCAATSSIPYYSGSYYPNPFEYDYWGQGTQVTVSS
notes: as for B7
With B10, in experiment [2], the binding result was “binds”.

B11: Nanobody 15H4 (VHH)
VHH: EVQLVESGGGLVQAGGSLRLSCAASGLTFSTYPMGWFRQAPGKEREFVAAINSGGSSTYYADSVKGRFTISRDNAKNTVYLQMNSLKPEDTAVYSCAVKIYSGSYSSPPGYNYWGQGTQVTVSS
notes: as for B1
Turning to B11, the binding result in experiment [1] is on record as “binds”.

B12: Nanobody 8E1 (VHH)
VHH: EVQLVESGGGLVQAGGSLRLSCAASGLTFSTYPMGWFRQAPGKEREFVAAINSGGSYTYYADSVKGRFTISRDNAVNTIYLQMNSLKPEDTAVYSCAVKIYSGSYSSPPGYNHWGQGTQVTVSS
notes: as for B1
In the case of B12, in experiment [1], the binding result is recorded as “binds”.

B13: Nanobody 11F2 (VHH)
VHH: EVQLVESGGGLVQPGGSLRLSCAASGFTFSSYAMSWVRQAPGKGLEWVSSIYSDGSNTYYADSVKGRFTISRDNAKNTLYLQMNSLKSEDTAVYYCAKKDYAVVPLDEYDYWGQGTQVTVSS
notes: llama VHH against CXCL11; also called 38D11; not shown: C-terminal c-myc tag and (His)6 tag coded by the vector
Regarding B13, the binding result in experiment [2] is listed as “binds”.

B14: Nanobody 8D1 (VHH)
VHH: EVQLVESGGGLVQPGGSLRLSCAASGFNLDDYAIGWFRQAPGKEREGVACASSTDGSTAYADSVKGRFTVSRDNAKNTVYLQMNSLKPEDTAVYYCAADPSDPFCPGLYYGMDYWGKGTLVTVSS
notes: as for B1
In the case of B14, the binding result in experiment [1] is on record as “binds”.

B15: Nanobody 11F7 (VHH)
VHH: EVQLVESGGGLVQAGGSLRLSCAASGGTFTKQTMGWFRQTPGKDREFVAVQWWTGLSTYSAEYADSVKGRFTISRDNAKNTAYLQMNSLKFEDTAVYYCAAGLGVVRTFIRRASSYDDWGQGTQVTVSS
notes: as for B7
On to B15, for which, in experiment [3], the binding result is reported as “binds”.

B16: Nanobody 11C7 (VHH)
VHH: EVQLVESGGGLVQAGGSLRLSCAAASGGTFTKQTISWFRQAPGKDREFVAAQWWSGLSTYFAEYADSVKGRFTISRDNAKNTAYLEMNSLKFEDTAVYYCAAGLGVVRTLIRRASSYDYWGQGTQVTVSS
notes: as for B7
With B16, the binding result in experiment [3] was “binds”.

B17: Nanobody 15H3 (VHH)
VHH: EVQLVESGGGLVQAGGSLRLSCAASGGTFSNYAMGWFRQAPEKEREFVAAVIWRGGSTYYADSVKGRFTISRDNARNTVYLQMNSLKPEDTAVYYCAADLLGNSDYEPSSGFGSWGQGTQVTVSS
notes: as for B1
As to B17, the binding result in experiment [1] is given as “binds”.

B18: Nanobody 8B2 (VHH)
VHH: EVQLVESGGGLVQAGGSLRLSCAASGGTFASYGMGWFRQYPGKEREFVAAISRSGDSTYYADSVKGRFTISRDNAKNTVYLQMNSLKPEDTAVYYCAAGRFIPQLSAYDYWGQGTQVTVSS
notes: as for B1
B18: in experiment [1], the binding result was “binds”.

B19: Nanobody 11D5 (VHH)
VHH: EVQLVESGGGLVQPGGSLRLSCAASRSGLSINAMGWFRQAPGKQRELVASITRGGPTIYADSVKGRFTISGDNAKNTVYLQMNSLKPEDTAVYYCNALIDYGLGFPIEYWGQGTQVTVSS
notes: as for B7
Take B19: in experiment [3], the binding result is recorded as “binds”.

B20: Nanobody 11D1 (VHH)
VHH: EVQLVESGGGLVQAGGSLRLSCAASGFTLNDYAIGWFRQAPGKEREGVSLISSDDGSTYYADSVKGRFTISSDNAKNTVYLQMNSLKPEDTAVYYCAAAQGLLLLSLWVPTQYDYWGQGTQVTVSS
notes: as for B7
B20: the binding result in experiment [3] is “binds”.

B21: Nanobody 11B8 (VHH)
VHH: EVQLVESGGGLVQPGGSLRLSCAASGFTLDDYVIGWFRQAPGKEREGVSGISSSDGSTYYADSVKGRFTISRDNAKNTVYLQMNSLKPEDTAVYYCAAGMGVLRLWVLSKLSYDYWGQGTQVTVSS
notes: as for B7
With B21, the binding result in experiment [3] is listed as “binds”.

B22: Nanobody 8E5 (VHH)
VHH: EVQLVESGGGLVQAGGSLRLSCAASGGTFSSYRMAWFRQTPGKEREFVTLISRSGGTTDYTDSVKGRFTISRDNAKNTVYLQMNSLKPEDTAVYYCAAAGSMGWNHFREYDYWGQGTQVTVSS
notes: as for B1
Take B22: in experiment [1], the binding result is given as “binds”.

B23: Nanobody 8D5 (VHH)
VHH: EVQLVESGGGLVQAGGSLRLSCAASGRTFSNYAMDWFRQAPGKEREFVAAISKSDGSTYYADSVKGRFTISRDNAKNTVYLQMNSLKPEDTAVYYCAAEGDSSPMGGVTYDYWGQGTQVTVSS
notes: as for B1
In the case of B23, in experiment [1], the binding result is recorded as “binds”.

B24: Nanobody 8A5 (VHH)
VHH: QVQLVESGGGLVQAGGSLALSCAASGIAFSIFDMAWFRQTPGKEREAVARISHGGGKDYLDSVKGRFTISRDNAKNTVTLQMTSLKPEDTAVYYCNAKNSFRNLWGQGTQVTVSS
notes: as for B1
On to B24, for which the binding result in experiment [1] was “binds”.

B25: Nanobody 11G8 (VHH)
VHH: EVQLVESGGGLVQAGGSLRLSCAASGRTFSSYAMGWFRQAPGKEQEFVAAISWSGGSTYYADSVKGRFTISRDNAKNTVYLQMNSLKPEDTAVYYCAAHDVDDDESPYYSGGYYRALYDYWGQGTQVTVSS
notes: as for B7
For the molecule B25, in experiment [3], the binding result is reported as “binds”.

B26: Nanobody 11E2 (VHH)
VHH: EVQLVESGGGLVQAGGSLRLSCAASGFTFDDYAIGWFRQAPGKEREGVSCISSSDDSTYYADSVKGRFTISSDTAKNTVYLQMDSLKPEDTAVYYCAKDCIIPPIGSWGQGTQVTVSS
notes: as for B7
For the molecule B26, in experiment [2], the binding result is given as “binds”.

B27: Nanobody 11E5 (VHH)
VHH: EVQLVESGGGLVQAGGSLRLSCAASGFTFDDYAIGWFRQAPGKEREGVSWISSSDKDTYYADSVKGRFTISSDNAKNTVYLQMNSLKPEDTAVYYCAAGAGLLIATIWTTQMYDYWGQGTQVTVSS
notes: as for B7
For the molecule B27, the binding result in experiment [3] is “binds”.

B28: Nanobody 11G2 (VHH)
VHH: EVQLVESGGGLVQAGGSLRLSCAASGFTFDDYAIGWFRQAPGKEREGVSWISSSDGSTYYADSVKGRFTISSDNAKNTVYLQMNSLKPEDTAVYYCAAGAGFLITTIWTTQMYDYWGQGTQVTVSS
notes: as for B7
For B28, the binding result in experiment [2] is given as “binds”.

B29: Nanobody 11D10 (VHH)
VHH: EVQLVESGGGLVQAGGSLRLSCAASGFTIDDYAIGWFRQAPGKEREGVSCISSSDGSTYYADSVKGRFTISSDNAKNTVYLQMNSLKPEDTAVYYCAAAQGLVVTEMFVGRSYDYWGQGTQVTVSS
notes: as for B7
Take B29: the binding result in experiment [3] is given as “binds”.
